Measurements as given in the supplement of paper PMC7125110.
± gives the standard error. This sample holds only a part of the variants without activity.

B1: glmS ribozyme (parent)
chain: AUAAAAGCGCCAGAACUACAGAAAUGUAGUUGACGAGGAGGAGGUUUAUCGAAUUUUCGGCGGAUGCCUCCAAA

Key:
Conditions in all cases: with glucosamine-6-phosphate
glucosamine-6-phosphate [1] = variants of: B1; assay: self-cleavage kobs at 640 uM GlcN6P; higher = faster cleavage; RNA array
Outline: (§1)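 Barcoded ribozyme variants were transcribed in situ on sequenced MiSeq chips by E. coli RNA polymerase. At 37 °C, a hybridised Cy3 probe tracked them while glucosamine-6-phosphate (40 μM to 10 mM) in HEPES/KCl/Mg(OAc)2 buffer flowed in and tiles were imaged over ~14 h. Per-tile medians of signals normalised to baseline and to non-cleaving reference variants were fit to one- or two-exponential decays, giving kobs. kcat and KM came from weighted Michaelis–Menten fits across concentrations.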

glucosamine-6-phosphate [2] = variants of: B1; assay: self-cleavage kobs at 2500 uM GlcN6P; higher = faster cleavage; RNA array
Outline: as §1

glucosamine-6-phosphate [3] = variants of: B1; assay: self-cleavage kobs at 10000 uM GlcN6P; higher = faster cleavage; RNA array
Outline: as §1

Variant | self-cleavage kobs at 640 uM GlcN6P (glucosamine-6-phosphate [1]) [s⁻¹] | self-cleavage kobs at 2500 uM GlcN6P (glucosamine-6-phosphate [2]) [s⁻¹] | self-cleavage kobs at 10000 uM GlcN6P (glucosamine-6-phosphate [3]) [s⁻¹]
A14C A53U C67U | 0.000153 ± 4.6e-05 | 0.000626 ± 0.0002 | 
C16U U46C U55A C70U | 0.00101 ± 0.00034 | 0.00219 ± 0.0006 | 0.00226 ± 0.00047
C8G C10A G41A | < 1e-05 | < 1e-05 | 
C16A G32A C34A | < 1e-05 | < 1e-05 | < 1e-05
A15G A48G | 4.16e-05 ± 1.4e-05 | 0.000216 ± 4e-05 | 8.59e-05 ± 1.3e-05
G7U G13U A42G | < 1e-05 |  | 
A15G C34A C71U | < 1e-05 | < 1e-05 | 
A15U U31C U55G G63U | < 1e-05 |  | 
C8A U49G C68G | 0.000875 ± 0.00033 |  | 
A36C G37A A64C G66A | < 1e-05 |  | 
A14U C16G G35U A36U G38U U56C U57G G60U | < 1e-05 | < 1e-05 | 
A39G U47G G59C | < 1e-05 |  | 
A48C U49G | < 1e-05 |  | < 1e-05
C11U C16U C71G | 6.83e-05 ± 1.8e-05 | 0.000127 ± 3.7e-05 | 
G13C G29U C71G | < 1e-05 |  | 
U30A A33C G40A C71U | < 1e-05 |  | 

Variant | self-cleavage kobs at 640 uM GlcN6P (glucosamine-6-phosphate [1]) [s⁻¹] | self-cleavage kobs at 2500 uM GlcN6P (glucosamine-6-phosphate [2]) [s⁻¹] | self-cleavage kobs at 10000 uM GlcN6P (glucosamine-6-phosphate [3]) [s⁻¹]
A33C G37A G41C U56C | < 1e-05 |  | 
U30G G37A A53G | 0.000102 ± 2.5e-05 |  | 
A6G G38A C50G | 0.00032 ± 7.9e-05 | 0.000113 ± 3.5e-05 | 
A15U G40U U55A U56A | 5.38e-05 ± 1.6e-05 |  | 
G7U U31C C50G | 0.000324 ± 0.00016 |  | 
G40C C67G C70G | < 1e-05 |  | < 1e-05
C34U U55C C67U | < 1e-05 |  | 
G26U A42G U55C | 0.0103 ± 0.0029 |  | 
U54A A64G C68G | 5.8e-05 ± 2.1e-05 | 0.000109 ± 3.5e-05 | 
G29C A33C C34G G38C A52G | < 1e-05 |  | 
A33C G38A U47G | < 1e-05 | < 1e-05 | 
C10U A52C C58G | < 1e-05 | < 1e-05 | 
C16U G35C G37A | < 1e-05 |  | 
C10G A33C G37A G59U | < 1e-05 | < 1e-05 | 
A42G U47G C67U | 0.00108 ± 0.00019 | 0.0013 ± 0.00029 | 
C8U A33U U46G A53G U55A | < 1e-05 | < 1e-05 | 
